Results from the supplement of paper PMC12764529.
± gives the half width of the 95% confidence interval.

What was measured:
[1] = folding stability dG unfold from trypsin proteolysis; higher = more stable
Method in brief: (§1)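 Unfolding free energy was derived, per protease or combined, against a sequence-predicted unfolded-state K50 and a shared folded-state K50, starting from K50 inferred by Bayesian fitting of sequencing counts. Digestion with trypsin and chymotrypsin was carried out on designed mini-proteins under 80 residues without cysteine in a PA-tagged cDNA display construct. Only designs with AlphaFold2 dimer inter-PAE above 15 were kept.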

[2] = folding stability dG unfold from chymotrypsin proteolysis; higher = more stable
Method in brief: as §1

[3] = folding stability dG unfold (combined trypsin and chymotrypsin); higher = more stable
Method in brief: as §1

Row | Sequence | folding stability dG unfold [1] [kcal/mol] | folding stability dG unfold [2] [kcal/mol] | folding stability dG unfold [3] [kcal/mol]
1 | SAGMPVEIPLVIRLTRYRDLPDGPELAEVRELPLPLRADPSELDNPELLAFIREALEKLPDEIREVEIASAG [r5_849_TrMRF] | -0.255 ± 0.27 | 0.757 ± 0.11 | 0.479 ± 0.17
2 | SAGMSFTVTTVGSPGPTTPRVVIEPPDRVVVISRLPDGSYEVRYYDPSPPVELERRRLAPEEAIAELLSAGG [r19_188_JUSTAS] | 0.385 ± 0.095 | 0.647 ± 0.098 | 0.575 ± 0.077
3 | SAGMSITIESDTNAPPDLPDIGEEEKLALAEELKEKALADPRYPDEEVVIVRPFKTPGGARWTITVVVSAGG [r19_132_JUSTAS] | 1.31 ± 0.042 | 1.29 ± 0.24 | 1.32 ± 0.17
4 | SAGMTFTTVTVERPLGSPEGKPVSLEEVEEYAKKVAEELEPNGFPVENITIELLPDGTAVITMTIKKPLSAG [r14_470_JUSTAS] | 2.03 ± 0.042 | 1.86 ± 0.044 | 1.94 ± 0.056
5 | SAGMTFTVDVEEETFSETKVIRVPVEYDDPALVDVAAAEIREALGIPESESVTVEREPRRATITIVIPASAG [r14_804_JUSTAS] | 0.267 ± 0.031 | 0.954 ± 0.029 | 0.743 ± 0.051
6 | SAGMTIEVEYTFPPGNPEEAEKRAEEIAEELKPKPLPNITIEISREPVVDPNSDATTTRYTFTITAEPKSAG [r5_49_JUSTAS] | 0.821 ± 0.051 | 1.19 ± 0.14 | 1.02 ± 0.19
7 | SAGMTITLDGVEITVERVRDEETGEWYYRVTVTVTTEDGEKVTITVTVPEGMTPEQVEALARELAEALASAG [r5_704_TrROS_Hall] | 5.12 ± 0.42 | 4.37 ± 0.096 | 4.54 ± 0.19
8 | SAGMTITVESLEDALALAEELAEKYPGLKVTVEVRLSPDGKTVEVRVTIEPAPPVKVVDPETGEEVEEESAG [r5_870_TrROS_Hall] | 3.72 ± 0.36 | 2.3 ± 0.12 | 3.43 ± 0.3
9 | SAGMTITVPGNVTVNVVITAYKFDENGNLIGPYTLVKPITVPENSTITIDLPNDEPNVVIIEIKAIPASAGG [r19_295_TrMRF] | 3.16 ± 0.15 | 4.81 ± 0.073 | 4.42 ± 0.18
10 | SAGMTLTVVLPVPEEMTEEEAAEILRAYVDAVVAELLAGDAVAVPKEIVVDKETGTAVAKVELFIPPDLSAG [r5_146_TrMRF] | 2.59 ± 0.064 | 2.56 ± 0.027 | 2.58 ± 0.068
11 | SAGMTQTLEVSGPSVKVTLTVAPDGSVTITTTDPNGNTTTTSLYVPPGVPVTIPLPFGGTTITATVTPASAG [r5_237_JUSTAS] | 2.38 ± 0.087 | 2.11 ± 0.071 | 2.36 ± 0.09
12 | SAGMTSVLTLEEVSPEELRAKIDEALATLPEGTIFVLPSEELAEVVKELHPGVPVVVRDEATGRLTEVGSAG [r5_391_JUSTAS] | 1.17 ± 0.041 | 1.67 ± 0.1 | 1.5 ± 0.086
13 | SAGMTTEKSPSGVGRVYLPTRTLELELLPDGTVVLRFPDGTEVVHPLSPEEAAAVRAELRARGLVVRPLSAG [r5_753_JUSTAS] | 1.59 ± 0.062 | 1.81 ± 0.092 | 1.7 ± 0.1
14 | SAGMTTTVTLKAPDGTTATVTIPPDGNAVMTIETPEGTSTRTVPVPADVSIEEILKEYPNYTIVSREAASAG [r5_259_JUSTAS] | 1.26 ± 0.037 | 2.05 ± 0.021 | 1.82 ± 0.041
15 | SAGMTVTFTLDFPANGGPITITVYHGDKAEEITVPKNETVTITVDLDPNDGLTIRAHYPDGSYVEFPIGSAG [r5_187_TrMRF] | 3.46 ± 0.16 | 4.65 ± 0.053 | 4.5 ± 0.09
16 | SAGMTVTVTLNYPTPGGPVTVRVLRGDEEEVVTVPPTETLTITVTLDPDSGATIEVFFPDGSSKTYPLGSAG [r5_187_JUSTAS] | 2.81 ± 0.1 | 3.76 ± 0.14 | 3.35 ± 0.18
17 | SAGMTYTEKVFTSEVTLPEIGAKITITTTVKTPPSGETEPTVEVTFDLPETASEEVVKAVLEELNIPVESAG [r5_486_JUSTAS] | -0.411 ± 0.2 | 1.13 ± 0.066 | 0.628 ± 0.38
18 | SAGMVEITVEVKEDGTVIVTIPATSPEEALEVAEEVARELAKQFGAEHTEFVIEPVPDDTLVLLVPIKKSAG [r5_772_TrMRF] | 0.389 ± 0.065 | 1.26 ± 0.11 | 0.874 ± 0.23

Row | Sequence | folding stability dG unfold [1] [kcal/mol] | folding stability dG unfold [2] [kcal/mol] | folding stability dG unfold [3] [kcal/mol]
19 | SAGMVEVSVTVSPRADGTITVTITLTKTFPVKDSKGNLYLETTTKTVTVPVTSLEEAPVIVKEVIDKLSAGG [r19_218_JUSTAS] | 3.82 ± 0.19 | 3.23 ± 0.14 | 3.54 ± 0.15
20 | SAGMVIPYKELKKNLSEEELIELAKEAAEKLGYKPKKIEIKETPEPDKYIVIDVIDENGNKHPIVFPSKSAG [r5_745_TrMRF] | 0.69 ± 0.036 | 0.374 ± 0.17 | 0.542 ± 0.088
21 | SAGMVKIEIEKKEDGEILITITAPSEEELKKLAEELAKELAKKLGIEEIEVKVEKLENGEYKVTIRIKKSAG [r5_772_TrROS_Hall] | 2.99 ± 0.14 | 3.09 ± 0.26 | 2.99 ± 0.23
22 | SAGMVLKITVKDKKTKEEREIVIEIPEDDPELKKLGIKSPEELAKKLAEELKKEGIEVEEVKVEAYPLPSAG [r5_722_TrROS_Hall] | 1.23 ± 0.096 | 2.04 ± 0.084 | 1.78 ± 0.25
23 | SAGMVTITVETTDPQGNWTTKTYEFPLDPGYSLDDVIKRHSPPNAKKYEVTKTEPPPPVTEIKLTVEPSSAG [r5_227_JUSTAS] | 0.698 ± 0.082 | 1.1 ± 0.19 | 0.822 ± 0.46
24 | SAGMVVENPGTETRVVFDPETGELYVEVGDKVYRIPLPPGVEVEFEVDPEAGTIRVYFPNTGEVLELPLSAG [r5_858_TrMRF] | 4.19 ± 0.13 | 3.38 ± 0.042 | 3.63 ± 0.051
25 | SAGMVVVKVTLPGPEEALRAAAAAVPVPVSIERDPEKPDVWTATITFPSPELAPVFVEAFAALGAEVVGSAG [r14_745_JUSTAS] | 1.96 ± 0.041 | 1.29 ± 0.041 | 1.69 ± 0.069
26 | SAGNAKEIAKKIKIRIREFFAERFGFPDVEIDSVTIKDVDPKNGRVRVNITWWWPNGRPWKHEIEIPVDSAG [r5_20_TrROS] | 2.38 ± 0.048 | 2.43 ± 0.072 | 2.43 ± 0.11
27 | SAGNDEEDQKKAEEQQKPPLEIEPIRVMVMVPFPGGDLLISITIPIIKYPDGGIIIPIPIEIIPLEDISAGG [r19_11_TrROS] | 2.06 ± 0.093 | 2.84 ± 0.085 | 2.5 ± 0.1
28 | SAGNFNIKEQKETDGRRVIEIPMPGSGHEITIVFERNPDGPRKININMNGPMADYLREALPGIDRVEIISAG [r5_933_TrROS] | 0.187 ± 0.31 | 0.275 ± 0.26 | 0.213 ± 0.22
29 | SAGNIKIEDIEPNDDYYTLVIKAPENGRTIMIQYNPNNNRIPIMIFPPGGVRTIPIPMNDIEDFLKEILSAG [r5_769_TrROS] | 0.79 ± 0.086 | 0.903 ± 0.049 | 0.893 ± 0.22
30 | SAGNITIEWEEYEDYRVIKITIPYKSPQQAPEEIESIIRKLGFPPNMKIEDIEVDPEEGHVEITIYIKSAGG [r19_186_TrROS] | 3.85 ± 0.12 | 4.65 ± 0.083 | 4.47 ± 0.085
31 | SAGNKIEIEPVNYEPMPNGYYRVTARVTIENPNNKKPWDIDVEAYYPMDPNGQPMNVDEIAKEAIKKIFSAG [r5_604_TrROS] | 0.624 ± 0.098 | 1.36 ± 0.11 | 1.07 ± 0.24
32 | SAGNPVLLKRPFIDPENGEPVYELTLFDPESNIVTTLFFNSDGKVIAVAVAYVPPETDEVDIELSVFDGSAG [r5_747_TrMRF] | 1.52 ± 0.053 | 1.36 ± 0.099 | 1.47 ± 0.062
33 | SAGNRYEVNLTYMYPPDDPGLIEKIKKILRKLGWEIEKVKEQRMPDNKMRMVTHKIRIPGLPPEALKAFSAG [r14_956_TrROS] | 0.918 ± 0.16 | 1.27 ± 0.23 | 1.31 ± 0.37
34 | SAGNVIVVVNPETGEVVVVSFDELVRIVAVSSKTLVPEVRDVPRDKVLDFIKEAFPGPVEILEIKPAPVSAG [r5_519_TrMRF] | 1.02 ± 0.043 | 1.22 ± 0.05 | 1.19 ± 0.053
35 | SAGPADPGFLGTRTVPHPDGVVTVDVYRFAGTRVLITITLPDSTVPVEDPVESEEEALAFADAVVAEVGLSA [r9_758_JUSTAS] | 0.637 ± 0.081 | 2.27 ± 0.037 | 1.66 ± 0.1
36 | SAGPDKPLKIESIGGKFNPDNGVISIKLKVEDPGDGKTYDYTMQFPVRDPDNGKPYMFTFPMRIKVPDSAGG [r19_129_TrROS] | 0.645 ± 0.072 | 0.647 ± 0.16 | 0.607 ± 0.13
